Results on 23 molecules are retold here after patent publication US20180305450A1 (AstraZeneca / MedImmune, published 2018).

B1: PaB670010 scFv (scFv, V domains shown)
VH: EVQLLESGGGLVQPGGSLRLSCAASGFTFSSYAMNWVRQAPGKGLEWVSTISYSGSLIHYADSVKGRFTISRDNSKNTLYLQMNSLRAEDTAVYYCARINNDPMDVWGQGTLVTVSS
VL: SIELTQPPSVSVSPGQTASITCSGDNLGKKYVQWYQQKPGQSPVLVIYDDSNRPSGIPERFSGSNSGNTATLTISGTQAMDEADYYCQTWDGNPTTGETNVFGGGTKLTVL
notes: purified scFv; also called ZZ1DRB-B08
B2: PaB670081 scFv (scFv, V domains shown)
VH: B1 VH with Y53H, S56H, L57H, H59S, Y60H, A61H, V64H, K65H
VL: B1 VL
notes: purified scFv; also called ZZ1OZA-C01
B3: PaB670077 scFv (scFv, V domains shown)
VH: B1 VH with H59S
VL: B1 VL with Q88H, T89H, D91H, N93H, P94H, V101H
notes: purified scFv; also called ZZ1OZJ-C11
B4: PaB670084 scFv (scFv, V domains shown)
VH: B1 VH with Y53H, S56H, Y60H, V64H
VL: B1 VL
notes: purified scFv; also called ZZ1PXA-A05
B5: PaB670076 scFv (scFv, V domains shown)
VH: B1 VH with H59S
VL: B1 VL with Q88H, G92H, N93H, P94H, T99H
notes: purified scFv; also called ZZ1NHH-F09
B6: PaB670020 scFv (scFv, V domains shown)
VH: B1 VH with H59S, N101H
VL: B1 VL
notes: purified scFv; also called ZZ1IGD-D05
B7: PaB670080 scFv (scFv, V domains shown)
VH: B1 VH with H59S
VL: B1 VL with N93H, P94H, T95H, V101H
notes: purified scFv
B8: PaB670045 scFv (scFv, V domains shown)
VH: B1 VH with H59S, N100H, N101H
VL: B1 VL
notes: purified scFv; also called ZZ1KX3-F01
B9: PaB670067 scFv (scFv, V domains shown)
VH: B1 VH with H59S
VL: B1 VL with Q88H, D91H, G92H, N93H, T96H, T99H
notes: purified scFv; also called ZZ1KXE-A05
B10: PaB670034 scFv (scFv, V domains shown)
VH: B1 VH with H59S
VL: B1 VL with T96H
notes: purified scFv; also called ZZ1IGF-B11
B11: PaB670085 scFv (scFv, V domains shown)
VH: B1 VH with S54H, L57H, H59S, A61H, D62H, V64H
VL: B1 VL
notes: purified scFv; also called ZZ1ODR-A02
B12: PaB670078 scFv (scFv, V domains shown)
VH: B1 VH with H59S
VL: B1 VL with Q88H, T89H, D91H, N93H, T95H, T99H
notes: purified scFv; also called ZZ1OZJ-G03
B13: PaB670075 scFv (scFv, V domains shown)
VH: B1 VH with H59S
VL: B1 VL with T89H, P94H, T95H, T96H, V101H
notes: purified scFv; also called ZZ1NHH-A05
B14: PaB670064 scFv (scFv, V domains shown)
VH: B1 VH with H59S
VL: B1 VL with Q88H, D91H, G92H, T95H, V101H
notes: purified scFv; also called ZZ1KX6-B09
B15: PaB670082 scFv (scFv, V domains shown)
VH: B1 VH with Y53H, G55H, H59S, D62H, K65H
VL: B1 VL
notes: purified scFv; also called ZZ1OZA-D02
B16: PaB670083 scFv (scFv, V domains shown)
VH: B1 VH with S52H, Y53H, S56H, I58H, H59S, Y60H, S63H
VL: B1 VL
notes: purified scFv; also called ZZ1OZB-H05
B17: PaB670079 scFv (scFv, V domains shown)
VH: B1 VH with H59S
VL: B1 VL with T89H, N93H, P94H, V101H
notes: purified scFv; also called ZZ1OZJ-G05
B18: PaB670070 scFv (scFv, V domains shown)
VH: B1 VH with H59S
VL: B1 VL with G92H, P94H, T95H, E98H
notes: purified scFv; also called ZZ1KXE-D06
B19: PaB670068 scFv (scFv, V domains shown)
VH: B1 VH with H59S
VL: B1 VL with N93H, P94H, T96H, T99H, N100H
notes: purified scFv; also called ZZ1KXE-B01
B20: PaB670066 scFv (scFv, V domains shown)
VH: B1 VH with H59S
VL: B1 VL with Q88H, T89H, D91H, P94H, T95H, V101H
notes: purified scFv; also called ZZ1KX6-D05
B21: PaB670071 scFv (scFv, V domains shown)
VH: B1 VH with H59S
VL: B1 VL with Q88H, D91H, G92H, N93H, P94H, T95H, T99H, V101H
notes: purified scFv; also called ZZ1L3F-A02
B22: PaB670048 scFv (scFv, V domains shown)
VH: B1 VH with H59S, N100H, N101H, V106H
VL: B1 VL
notes: purified scFv; also called ZZ1KX4-E11
B23: PaB670073 scFv (scFv, V domains shown)
VH: B1 VH with H59S
VL: B1 VL with T89H, D91H, N93H, T95H, T96H, T99H
notes: purified scFv; also called ZZ1L3F-H03

Numbering of substitutions follows the chain as printed.

T1 sequence (P55085 26-75): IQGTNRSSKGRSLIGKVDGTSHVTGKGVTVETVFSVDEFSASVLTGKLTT

The first test concerns the target T1, recombinant biotinylated human PAR2 extracellular domain (residues 1-75), N-terminal AviTag, C-terminal Flag … (human, UniProt P55085 26-75, biotin on the AviTag (enzymatic biotinylation)).
T1 construct: also called Bio-human-PAR2 ECD; human PAR2 ECD; not shown: N-terminal AviTag (Avidity LLC); C-terminal Flag and poly Histidine tags
Description: HTRF competition with Par0067 IgG, scFv. As to the method:
(§1) 5 μl/well of the appropriate pH 4.44 nM Par0067 IgG solution was added to all wells of the relevant assay plate (pH 7.4 and pH 6.0).
(§2) Test scFv Preparation/Addition: [0172] a) For parallel single point HTS of crude un-purified bacterial lysate scFv samples at both pH 7.4 and pH 6.0 samples were first pre-diluted to 40% of their neat concentration using either pH 7.4 or pH 6.0 assay buffer as appropriate. Subsequently 5 μl of 40% pre-diluted sample was then transferred into the appropriate assay (pH 7.4 or pH 6.0) in order to give a final assay sample concentration of 10.0% (in the 20 μl final assay volume). The parent Par0067 scFv was included in all HTS experiments as a control as were specific pH dependent antibodies as those became available (for benchmarking). […] Duplicate 11 point 1:3 serial dilutions then were prepared on 384 well polypropylene Greiner plates in each of the two assay buffers (pH 7.4 & 6.0). 5 μl per well of each serial dilution was transferred from the relevant pH scFv dilution plate to the corresponding assay plate (pH 7.4 and pH 6.0). 5 μl of the appropriate pH assay buffer was added to the total and non-specific wells. The parent Par0067 purified scFv was included in all multipoint dose response IC₅₀ experiments as a control as were specific pH dependent purified scFv as those became available (for benchmarking).
(§3) For multipoint dose response curves % Specific Binding values were plotted versus test purified antibody concentration (scFv or IgG). IC₅₀ values were determined via a sigmoidal dose response inhibition variable slope curve fit (4 parameter logistic equation) using Graphpad Prism Software.
Turning to B1, the “Fold IC50 (pH 6.0 v pH 7.4)” value turned out to be 2.7 fold and the “Fold IC50 pH 7.4 (Variant v Par0067)” value was found to be 4.7 fold.
For the molecule B2, the “Fold IC50 (pH 6.0 v pH 7.4)” value worked out at 5.1 fold and the “Fold IC50 pH 7.4 (Variant v Par0067)” value is 15.6 fold.
Turning to B3, the “Fold IC50 (pH 6.0 v pH 7.4)” value was 11.2 fold and the “Fold IC50 pH 7.4 (Variant v Par0067)” value is 16.8 fold.
For B4, the “Fold IC50 (pH 6.0 v pH 7.4)” value was 5.2 fold and the “Fold IC50 pH 7.4 (Variant v Par0067)” value turned out to be 16.5 fold.
In the case of B5, the “Fold IC50 (pH 6.0 v pH 7.4)” value was 6.3 fold and the “Fold IC50 pH 7.4 (Variant v Par0067)” value was determined as 14 fold.
Take B6: the “Fold IC50 (pH 6.0 v pH 7.4)” value came to 3.3 fold and the “Fold IC50 pH 7.4 (Variant v Par0067)” value was 1.7 fold.
For B7, the “Fold IC50 (pH 6.0 v pH 7.4)” value is 9.5 fold and the “Fold IC50 pH 7.4 (Variant v Par0067)” value stood at 5 fold.
Turning to B8, the “Fold IC50 (pH 6.0 v pH 7.4)” value worked out at 7.4 fold and the “Fold IC50 pH 7.4 (Variant v Par0067)” value amounted to 3 fold.
For B9, in that order: 7.9 fold and 4.4 fold.
For B10, the “Fold IC50 (pH 6.0 v pH 7.4)” value worked out at 2.5 fold and the “Fold IC50 pH 7.4 (Variant v Par0067)” value stood at 1.7 fold.
As for B11, the “Fold IC50 (pH 6.0 v pH 7.4)” value was determined as 3.2 fold and the “Fold IC50 pH 7.4 (Variant v Par0067)” value was determined as 14.6 fold.
B12: the “Fold IC50 (pH 6.0 v pH 7.4)” value was 9.6 fold and the “Fold IC50 pH 7.4 (Variant v Par0067)” value was found to be 10.1 fold.
On to B13, for which the “Fold IC50 (pH 6.0 v pH 7.4)” value stood at 5.9 fold and the “Fold IC50 pH 7.4 (Variant v Par0067)” value was 30.8 fold.
For the molecule B14, the “Fold IC50 (pH 6.0 v pH 7.4)” value was 4.3 fold and the “Fold IC50 pH 7.4 (Variant v Par0067)” value turned out to be 20.3 fold.
With B15, the “Fold IC50 (pH 6.0 v pH 7.4)” value worked out at 3.1 fold and the “Fold IC50 pH 7.4 (Variant v Par0067)” value was determined as 7.7 fold.
Consider B16, for which the “Fold IC50 (pH 6.0 v pH 7.4)” value is 3.4 fold and the “Fold IC50 pH 7.4 (Variant v Par0067)” value is 13.7 fold.
For B17, in that order: 11.1 fold and 13.4 fold.
Take B18: the “Fold IC50 (pH 6.0 v pH 7.4)” value was found to be 4.5 fold and the “Fold IC50 pH 7.4 (Variant v Par0067)” value is 18.3 fold.
On to B19, for which the “Fold IC50 (pH 6.0 v pH 7.4)” value worked out at 5.8 fold and the “Fold IC50 pH 7.4 (Variant v Par0067)” value turned out to be 23.6 fold.
For B20, the “Fold IC50 (pH 6.0 v pH 7.4)” value is 9.3 fold and the “Fold IC50 pH 7.4 (Variant v Par0067)” value was 15.8 fold.
For the molecule B21, the “Fold IC50 (pH 6.0 v pH 7.4)” value worked out at 4.2 fold and the “Fold IC50 pH 7.4 (Variant v Par0067)” value worked out at 30.7 fold.
Turning to B22, the “Fold IC50 (pH 6.0 v pH 7.4)” value was 9.6 fold and the “Fold IC50 pH 7.4 (Variant v Par0067)” value stood at 4.4 fold.
For B23, the “Fold IC50 (pH 6.0 v pH 7.4)” value turned out to be 5.9 fold and the “Fold IC50 pH 7.4 (Variant v Par0067)” value was 21.8 fold.

In another test the target is T1, recombinant biotinylated human PAR2 …. Description: HTRF competition with Par0067 IgG, pH 6.0, scFv. As to the method:
as §1, §2, §3
B1: the IC50 came out at 41.8 nM.
For the molecule B2, the IC50 was determined as 260 nM.
Turning to B3, the IC50 is 620 nM.
Regarding B4, the IC50 stood at 283 nM.
Same read-out and setting: for B5 the value was 292 nM; for B6, 18.5 nM; for B7, 158 nM.
Take B8: the IC50 turned out to be 72.5 nM.
Take B9: the IC50 is 113 nM.
Consider B10, for which the IC50 was 14.2 nM.
Same read-out and setting: under B11 stands 155 nM; under B12, 319 nM.
On to B13, for which the IC50 was 603 nM.
Same read-out and setting: under B14 stands 290 nM; under B15, 77.9 nM.
With B16, the IC50 is 152 nM.
As to B17, the IC50 amounted to 490 nM.
Consider B18, for which the IC50 was 270 nM.
With B19, the half-inhibitory concentration (IC50) stood at 448 nM.
For the molecule B20, the IC50 turned out to be 487 nM.
For B21, the IC50 came out at 425 nM.
With B22, the IC50 stood at 139 nM.
Turning to B23, the half-inhibitory concentration (IC50) amounted to 428 nM.

For the next test the target is unchanged. Description: HTRF competition with Par0067 IgG, pH 7.4, scFv. The protocol: as §1, §2, §3
As for B1, the IC50 amounted to 15.4 nM.
The same measure, in the same setting: for B2 the value was 51.4 nM.
On the same count and under the same terms, for B3 the value was 55.4 nM; for B4, 54.5 nM; for B5, 46.2 nM.
Regarding B6, the IC50 turned out to be 5.6 nM.
B7: the IC50 is 16.6 nM.
The same measure, in the same setting: under B8 stands 9.8 nM.
Take B9: the IC50 worked out at 14.4 nM.
Still for that read-out and setting: under B10 stands 5.6 nM; under B11, 48.1 nM.
For the molecule B12, the IC50 amounted to 33.3 nM.
Still for that read-out and setting: under B13 stands 102 nM; under B14, 67.1 nM; under B15, 25.4 nM.
On to B16, for which the IC50 is 45.2 nM.
Take B17: the IC50 amounted to 44.2 nM.
As for B18, the IC50 turned out to be 60.4 nM.
Regarding B19, the IC50 worked out at 77.8 nM.
With B20, the IC50 amounted to 52.2 nM.
Consider B21, for which the IC50 is 101 nM.
Consider B22, for which the IC50 worked out at 14.5 nM.
For B23, the IC50 is 72.1 nM.
